Reference: paper doi:10.1101/2021.04.26.441501 (bioRxiv, 2021)

Target: SARS-CoV-2 RBD (residues 319-514) with C-terminal hexahistidine tag (Severe acute respiratory syndrome …, UniProt P0DTC2)
Experiment: ELISA

B1: SARS2-38 (murine IgG1 mAb) (antibody, V domains shown)
VH: QVQLKESGPGLVAPSQSLSITCTVSGFSLTRYGVHWVRQPPGKGLEWLGVIWADGSTYYNSALMSRLSISKDNSKSQVFLNMNSLQTDDTAKYYCARDGRGYDDYWGQGTTLTVSS
VL: QIVLTQSPAIMSASPGEKVTMTCSASSTVSFIYWYQQKPGSSPRLLIYDTSNPASGVPVRFSGSGCGTSYYLTISRMEAEDAATYYCQQWNTYPLTFGAGTKLELK
Does B1 bind?
Result: binds
